Source: PMC8766848, “The Structural Basis of Babesia orientalis Lactate Dehydrogenase” (Frontiers in Cellular and Infection Microbiology, 2022)

Experiments:
[1] = test system: T1, CC(=O)c1ccc[n+]([C@@H]2O[C@H](COP(=O)([O-])OP(=O)(O)OC[C@H]3O[C@@H](n4cnc5c(N)ncnc54)[C@H](O)[C@@H]3O)[C@@H](O)[C@H]2O)c1; experiment: enzyme kinetics (Km), lactate to pyruvate, comparison enzyme; format: biochemical, Babesia microti; conditions: varied: cofactor
T1 construct: recombinant rBmLDH

[2] = molecular target: recombinant Babesia orientalis lactate dehydrogenase (Babesia orientalis); experiment: crystal structure; apo rBoLDH, hanging drop vapour diffusion at 20°C, 1 M lithium chloride, 0.1 M sodium acetate, 25-30% PEG 6000; space group P1, 2.67 Å
[3] = molecular target: recombinant Babesia orientalis lactate dehydrogenase (Babesia orientalis); experiment: native gel or EMSA; 8% blue native-PAGE of purified rBoLDH, without sodium dodecyl sulfate; ~160 kDa band

## Babesia microti lactate dehydrogenase (BmLDH) (Babesia microti strain RI)
[1]
  Km: 880 ± 120 µM

## recombinant Babesia orientalis lactate dehydrogenase (enzyme)
[2]
  stoichiometry N: 4
[3]
  stoichiometry N: 4
